Five substances from publication PMC6211522 can be followed below.

Experiment [1] deals with MHV-68 viral PARP-1-interacting protein (vPIP; ORF49), purified recombinant (murine gammaherpesvirus 68 (MHV-68)). As to the kind of experiment: SEC-MALS; 50 mM HEPES pH 7.5, 100 mM NaCl; WTC-050S5 column, DAWN HELEOS II and Optilab T-rEX detectors. (In gel filtration, larger molecules generally elute earlier.)
Experiment [2] has as its target His-tagged mouse PARP-1 protein (Sino Biological) (mouse) (UniProt P11103). Nature of the experiment: SPR; […], CM5 chip; […], HBS-EP (10 mM HEPES pH 7.4, 150 mM NaCl, 3 mM EDTA, 0.005% P20); 1:1 binding model.
Chain of UniProt P11103 (P11103 whole entry): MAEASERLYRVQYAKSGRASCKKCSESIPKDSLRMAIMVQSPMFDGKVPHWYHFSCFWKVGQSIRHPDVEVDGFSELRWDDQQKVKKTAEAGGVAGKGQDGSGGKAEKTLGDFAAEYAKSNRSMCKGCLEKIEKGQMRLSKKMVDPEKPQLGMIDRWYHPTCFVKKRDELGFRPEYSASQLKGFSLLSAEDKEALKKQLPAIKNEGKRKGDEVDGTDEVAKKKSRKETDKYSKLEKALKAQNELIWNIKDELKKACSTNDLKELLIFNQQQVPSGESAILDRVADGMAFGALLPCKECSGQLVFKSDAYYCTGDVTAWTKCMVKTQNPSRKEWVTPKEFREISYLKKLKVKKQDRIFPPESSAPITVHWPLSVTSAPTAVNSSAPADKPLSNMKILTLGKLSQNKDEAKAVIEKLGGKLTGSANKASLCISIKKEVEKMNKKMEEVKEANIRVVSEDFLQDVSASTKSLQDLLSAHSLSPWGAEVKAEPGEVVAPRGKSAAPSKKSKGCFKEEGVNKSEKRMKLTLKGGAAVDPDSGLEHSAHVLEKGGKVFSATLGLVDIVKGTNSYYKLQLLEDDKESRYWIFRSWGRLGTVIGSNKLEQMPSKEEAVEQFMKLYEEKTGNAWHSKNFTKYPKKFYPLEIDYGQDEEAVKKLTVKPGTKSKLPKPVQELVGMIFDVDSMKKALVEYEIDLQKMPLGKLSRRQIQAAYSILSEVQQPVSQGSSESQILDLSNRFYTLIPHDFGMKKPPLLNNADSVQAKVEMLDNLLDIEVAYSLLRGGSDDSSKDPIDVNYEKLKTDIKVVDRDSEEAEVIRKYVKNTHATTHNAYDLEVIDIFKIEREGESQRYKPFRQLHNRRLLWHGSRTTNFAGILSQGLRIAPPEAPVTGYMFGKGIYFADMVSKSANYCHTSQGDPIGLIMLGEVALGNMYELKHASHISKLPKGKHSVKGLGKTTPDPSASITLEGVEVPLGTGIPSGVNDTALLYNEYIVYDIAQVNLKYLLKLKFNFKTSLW
The target in experiment [3] is FLAG-tagged PARP-1 in HEK293T cells (UniProt P09874). Nature of the experiment: co-IP (anti-FLAG) and Western blotting, band intensity by ImageJ. The following applies: 48 h post-transfection, parent: 1.0. In general terms: In western blotting, separated proteins are transferred to a membrane and probed.
Chain of UniProt P09874 (P09874 whole entry): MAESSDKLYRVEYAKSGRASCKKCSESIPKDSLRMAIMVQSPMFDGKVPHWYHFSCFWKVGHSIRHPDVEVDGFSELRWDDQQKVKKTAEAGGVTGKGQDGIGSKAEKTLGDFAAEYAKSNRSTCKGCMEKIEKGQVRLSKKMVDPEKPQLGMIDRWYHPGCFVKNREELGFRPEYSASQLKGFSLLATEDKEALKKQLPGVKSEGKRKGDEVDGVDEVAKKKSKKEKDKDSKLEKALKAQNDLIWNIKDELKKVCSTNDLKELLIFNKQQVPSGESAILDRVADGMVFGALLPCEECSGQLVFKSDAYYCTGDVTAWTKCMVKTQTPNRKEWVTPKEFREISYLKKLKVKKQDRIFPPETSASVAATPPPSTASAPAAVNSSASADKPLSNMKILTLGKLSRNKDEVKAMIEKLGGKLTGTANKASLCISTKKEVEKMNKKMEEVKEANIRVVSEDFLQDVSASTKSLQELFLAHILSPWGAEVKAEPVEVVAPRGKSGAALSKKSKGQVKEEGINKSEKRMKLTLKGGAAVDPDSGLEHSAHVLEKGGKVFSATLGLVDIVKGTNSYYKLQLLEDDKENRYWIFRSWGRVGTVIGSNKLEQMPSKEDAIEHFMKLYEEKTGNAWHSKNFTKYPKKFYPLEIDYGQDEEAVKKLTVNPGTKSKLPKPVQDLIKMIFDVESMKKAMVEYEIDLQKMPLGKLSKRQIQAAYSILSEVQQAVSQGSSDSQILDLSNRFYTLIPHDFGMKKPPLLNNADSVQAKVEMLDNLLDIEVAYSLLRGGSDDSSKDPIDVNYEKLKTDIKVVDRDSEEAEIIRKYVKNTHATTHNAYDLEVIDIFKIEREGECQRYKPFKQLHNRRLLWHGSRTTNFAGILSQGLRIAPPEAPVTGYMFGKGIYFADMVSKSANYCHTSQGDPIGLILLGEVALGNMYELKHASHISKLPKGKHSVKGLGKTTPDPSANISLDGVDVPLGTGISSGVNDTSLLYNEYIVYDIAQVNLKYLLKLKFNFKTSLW

In the case of “MHV-68 viral PARP-1-interacting protein (vPIP; ORF49), purified recombinant (natural protein)”, the stoichiometry N in experiment [1] is 2. For the same substance, the Kd in experiment [2] is 930 nM.

Take “MYC-tagged vPIP wild type in HEK293T cells F5A; S12A; T16A”: the ratio to parent in experiment [3] worked out at 0.5.

Turning to “MYC-tagged vPIP wild type in HEK293T cells F5A; S12A; T16A; H47A; D50A”, in experiment [3], the ratio to parent was 0.3.

In the case of “MYC-tagged vPIP wild type in HEK293T cells H47A; D50A”, the ratio to parent in experiment [3] is 1.4. Substance “ORF49_(KSHV), purified recombinant (natural protein)” showed a Kd in experiment [2] of 410 nM. This lies in the sub-micromolar range.

The stoichiometry N is a count of units in the complex or per binding partner. A word on the Kd: it is the constant that tells how readily two partners part at equilibrium.
